To fix the notation:
B1: FCHSD1 (parent)
chain: LQEPGVFSPTPPQQFQPAGTDQVC
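Note: lentivirally expressed fusions sorted by FACS into six bins by GFP to DsRed ratio, PSI derived from sequencing read proportions per bin multiplied by bin number.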

This series covers variants of B1. Kind of series: protein stability index of a GFP-peptide fusion (GPS, HEK-293T) (PSI 1-6); higher = more stable. To be noted: c terminus: a fixed tail appended.
As to LQEPGVFSQTPPQQFQPAGTDQVC [P9Q], the protein stability index turned out to be 4.65.
With LQEPGVFSCTPPQQFQPAGTDQVC [P9C], the protein stability index amounted to 4.26.
As to LQEPGVFSKTPPQQFQPAGTDQVC [P9K], the protein stability index is 4.31.
LQEPGVFSLTPPQQFQPAGTDQVC [P9L]: the protein stability index is 4.56.
As for LQEPGVFSMTPPQQFQPAGTDQVC [P9M], the figure is 4.38; as for LQEPGVFSRTPPQQFQPAGTDQVC [P9R], 4.26.
In the case of LQEPGVFSTTPPQQFQPAGTDQVC [P9T], the protein stability index is 4.69.
Take LQEPGVFSFTPPQQFQPAGTDQVC [P9F]: the protein stability index is 4.14.
As for LQEPGVFSSTPPQQFQPAGTDQVC [P9S], the figure is 4.14.
Turning to LQEPGVFSVTPPQQFQPAGTDQVC [P9V], the protein stability index stood at 4.3.
As for LQEPGVFSYTPPQQFQPAGTDQVC [P9Y], the protein stability index came to 3.81.
As for LQEPGVFSHTPPQQFQPAGTDQVC [P9H], the figure is 4.29.
As for LQEPGVFSETPPQQFQPAGTDQVC [P9E], the figure is 4.7; as for LQEPGVFSGTPPQQFQPAGTDQVC [P9G], 4.38.
For LQEPGVFSWTPPQQFQPAGTDQVC [P9W], the protein stability index worked out at 3.67.
As for LQEPGVFSATPPQQFQPAGTDQVC [P9A], the figure is 4.57; as for LQEPGVFSPTPQQQFQPAGTDQVC [P12Q], 4.45; as for LQEPGVFSPTPDQQFQPAGTDQVC [P12D], 5.07.
Consider LQEPGVFSPTPSQQFQPAGTDQVC [P12S], for which the protein stability index was found to be 4.46.
The value for LQEPGVFSPTPHQQFQPAGTDQVC [P12H] was 4.23; that for LQEPGVFSPTPYQQFQPAGTDQVC [P12Y] was 3.66; that for LQEPGVFSPTPCQQFQPAGTDQVC [P12C] was 4.02.
In the case of LQEPGVFSPTPKQQFQPAGTDQVC [P12K], the protein stability index was 4.05.
As for LQEPGVFSPTPEQQFQPAGTDQVC [P12E], the figure is 4.82; as for LQEPGVFSPTPLQQFQPAGTDQVC [P12L], 3.96; as for LQEPGVFSPTPRQQFQPAGTDQVC [P12R], 4.33.
As for LQEPGVFSPTPIQQFQPAGTDQVC [P12I], the figure is 4.11; as for LQEPGVFSPTPWQQFQPAGTDQVC [P12W], 3.5; as for LQEPGVFSPTPGQQFQPAGTDQVC [P12G], 4.5.
The value for LQEPGVFSPTPMQQFQPAGTDQVC [P12M] was 4.09; that for LQEPGVFSPTPNQQFQPAGTDQVC [P12N] was 4.33; that for LQEPGVFSPTPVQQFQPAGTDQVC [P12V] was 3.69.
As to LQEPGVFSPTPFQQFQPAGTDQVC [P12F], the protein stability index worked out at 3.48.
The value for LQEPGVFSPTPPQQFQPAGLDQVC [T20L] was 3.61; that for LQEPGVFSPTPPQQCQPAGTDQVC [F15C] was 4.17; that for LQEPGVFSPTPPQQGQPAGTDQVC [F15G] was 4.68.
As to LQEPGVFSPSPPQQFQPAGTDQVC [T10S], the protein stability index amounted to 4.34.
As to LQEPGVFSPWPPQQFQPAGTDQVC [T10W], the protein stability index amounted to 3.35.
As for LQEPGVFSPEPPQQFQPAGTDQVC [T10E], the figure is 4.38; as for LQEPGVFSPCPPQQFQPAGTDQVC [T10C], 3.52; as for LQEPGVFSPGPPQQFQPAGTDQVC [T10G], 4.16.
As for LQEPGVFSPKPPQQFQPAGTDQVC [T10K], the figure is 4; as for LQEPGVFSPAPPQQFQPAGTDQVC [T10A], 4.56; as for LQEPGVFSPNPPQQFQPAGTDQVC [T10N], 3.98.
With LQEPGVFSPHPPQQFQPAGTDQVC [T10H], the protein stability index turned out to be 4.17.
As for LQEPGVFSPIPPQQFQPAGTDQVC [T10I], the figure is 3.65.
LQEPGVFSPMPPQQFQPAGTDQVC [T10M]: the protein stability index is 3.82.
As for LQEPGVFSPQPPQQFQPAGTDQVC [T10Q], the figure is 4.21; as for LQEPGVFSPVPPQQFQPAGTDQVC [T10V], 3.96.
As for LQEPGVFSPRPPQQFQPAGTDQVC [T10R], the figure is 3.54; as for LQEPGVFSPYPPQQFQPAGTDQVC [T10Y], 3.38.
As for LQEPGVFSPFPPQQFQPAGTDQVC [T10F], the figure is 3.5; as for LQEPGVFSPDPPQQFQPAGTDQVC [T10D], 4.67; as for LQEPGVFSPLPPQQFQPAGTDQVC [T10L], 4.16.
Consider LQEPGVFRPTPPQQFQPAGTDQVC [S8R], for which the protein stability index worked out at 4.57.
The value for LQEPGVFWPTPPQQFQPAGTDQVC [S8W] was 3.85.
As for LQEPGVFSPTPPQQFLPAGTDQVC [Q16L], the figure is 3.93; as for LQEPGVFSPTHPQQFQPAGTDQVC [P11H], 4.09; as for LQEPGVFSPTQPQQFQPAGTDQVC [P11Q], 4.26.
As for LQEPGVFSPTSPQQFQPAGTDQVC [P11S], the protein stability index amounted to 3.73.
As for LQEPGVFSPTFPQQFQPAGTDQVC [P11F], the figure is 3.49; as for LQEPGVFSPTDPQQFQPAGTDQVC [P11D], 4.5.
Consider LQEPGVFSPTCPQQFQPAGTDQVC [P11C], for which the protein stability index worked out at 2.16.
With LQEPGVFSPTTPQQFQPAGTDQVC [P11T], the protein stability index worked out at 4.31.
The value for LQEPGVFSPTYPQQFQPAGTDQVC [P11Y] was 3.65; that for LQEPGVFSPTWPQQFQPAGTDQVC [P11W] was 3.41; that for LQEPGVFSPTLPQQFQPAGTDQVC [P11L] was 3.89.
As for LQEPGVFSPTVPQQFQPAGTDQVC [P11V], the figure is 4.43; as for LQEPGVFSPTMPQQFQPAGTDQVC [P11M], 4.17; as for LQEPGVFSPTEPQQFQPAGTDQVC [P11E], 4.69.
The value for LQEPGVFSPTGPQQFQPAGTDQVC [P11G] was 4.25; that for LQEPGVFSPTRPQQFQPAGTDQVC [P11R] was 3.9.
As to LQEPGVFSPTAPQQFQPAGTDQVC [P11A], the protein stability index stood at 4.41.
The value for LQEPGVFSPTIPQQFQPAGTDQVC [P11I] was 4.04; that for LQEPGVFSPTNPQQFQPAGTDQVC [P11N] was 4.38.
As to LQEPGVFSPTKPQQFQPAGTDQVC [P11K], the protein stability index came to 3.62.
For LQEPGVFSPTPPQVFQPAGTDQVC [Q14V], the protein stability index stood at 4.1.
As for LQEPGVFSPTPPQGFQPAGTDQVC [Q14G], the figure is 2.86.
The value for LQEPGVFSPTPPQQFQPAGTDWVC [Q22W] was 2.94; that for LQEPGVFSPTPPYQFQPAGTDQVC [Q13Y] was 3.74.
The value for LQEPGVFSPTPPEQFQPAGTDQVC [Q13E] was 3.75; that for LQEPGVFSPTPPVQFQPAGTDQVC [Q13V] was 4.26; that for LQEPGVFSPTPPNQFQPAGTDQVC [Q13N] was 4.11.
In the case of LQEPGVFSPTPPDQFQPAGTDQVC [Q13D], the protein stability index turned out to be 4.55.
The value for LQEPGVFSPTPPMQFQPAGTDQVC [Q13M] was 3.96; that for LQEPGVFSPTPPIQFQPAGTDQVC [Q13I] was 3.6; that for LQEPGVFSPTPPFQFQPAGTDQVC [Q13F] was 3.8.
With LQEPGVFSPTPPSQFQPAGTDQVC [Q13S], the protein stability index came out at 4.16.
On to LQEPGVFSPTPPCQFQPAGTDQVC [Q13C], for which the protein stability index was determined as 4.04.
The value for LQEPGVFSPTPPKQFQPAGTDQVC [Q13K] was 3.78; that for LQEPGVFSPTPPWQFQPAGTDQVC [Q13W] was 3.17; that for LQEPGVFSPTPPRQFQPAGTDQVC [Q13R] was 4.07.
For the variant LQEPGVFSPTPPGQFQPAGTDQVC [Q13G], the protein stability index is 3.89.
For LQEPGVFSPTPPQQFQPWGTDQVC [A18W], the protein stability index is 2.99.

The values above are taken from the supplement of paper PMC10567573.
